Target: N-terminal region deleted seYdjB-like protein (amino acid from 35 to 162) (Salmonella enterica)
Test: SEC-MALS; Superdex 75 10/300 GL, SEC buffer (20 mM Tris-HCl pH 8.0, 150 mM NaCl), 0.6 mL/min; three-angle light scattering and refractive index detectors; BSA as reference

With “N-terminal region deleted seYdjB-like protein (amino acid from 35 to 162) (domain or fragment)” the stoichiometry N was 2.
